Experiment [1] has as its target T1, rhesus macaque CD8 on expanded primary T cells (rhesus macaque).
T1 construct: also called CD4- CD8+ rhesus T cells
Put plainly: flow cytometry, Rhesus Expanded T cells Donor 9, gated on live CD8 T cells (via CD3+CD4-). As for the experimental part: (§1) To obtain the results shown in FIG. 8A and FIG. 8B, 5×10⁴ expanded primary T cells (human, cynomolgus macaque or rhesus monkey) were thawed and transferred to a V bottom 96-well culture plate (Corning). Cells were washed twice with Cell Staining buffer (#420201, Biolegend). Each anti-CD8α antibody was diluted in four-fold antibody titration series from 60 μg/mL to 0.057 ng/mL into Cell Staining buffer. Cells were stained with each diluted antibody solution for 30 minutes on ice. Cells were then washed three times with Cell Staining buffer and primary antibody binding was detected by staining with anti-human Fc BV421 conjugate antibody (#410704, Biolegend) at 1:200 dilution for 30 minutes on ice. […] Flow cytometry data was analyzed by Flowjo 10 (Becton, Dickinson & Company) to measure the geometric median fluorescence intensity (gMFI) of the on-cell binding from each antibody. The gMFI values were normalized with the gMFI measured in the sample stained with only the secondary detection antibody and plotted against the concentration of the added antibodies. The binding curves were constructed using Graphpad Prism software, and EC₅₀ values were determined by non-linear curve fitting.
For orientation: A flow cytometer gives signals particle by particle.

Experiment [2] deals with T2, human CD8αα homodimer, recombinant protein (Acro Biosystems) (human, UniProt P01732 22-182).
T2 construct: also called CD8αα antigen; biotinylated CD8α recombinant protein (CDA-H82E3)
Kind of experiment: BLI steady state, whole hIgG1-LALAPA antibody on CD8α-His (Ni-NTA sensor), 30 °C.

Experiment [3] deals with T3, human CD8 on cells (CD8-overexpressing HEK293T cells, SupT1, HPB-ALL, human T cells, transfected HEK293 of … (human, UniProt P01732 22-235)).
T3 construct: whole, on cells; also called cell surface CD8
Kind of experiment: flow cytometry, Human Expanded T cells Donor 5, gated on live CD8 T cells (via CD3+CD4-). How it is done: as §1

The target in experiment [4] is T3, human CD8 on cells (CD8-overexpressing …). Put plainly: flow cytometry, Human Expanded T cells Donor 6, gated on CD4- T cells, anti-human Fc BV421. As for the experimental part:
(§2) Binding was measured by fluorescence from the BV421 fluorophore-conjugated anti-human Fc secondary antibody that recognize the binders. The gMFI was normalized to the gMFI of the secondary antibody in the absence of the anti-CD8α binders.
as §1, with “Cells were stained with each diluted antibody solution for 30 minutes on ice.” left out

For experiment [5], the target named is T2, human CD8αα homodimer, recombinant …. Kind of experiment: BLI binding kinetic analysis, whole antibody, sample stressed at pH 8.5, 40 °C, 7 days. Background: BLI is a label-free optical method that tracks binding on a fibre tip over time.
For experiment [6] the target is unchanged. Put plainly: BLI binding kinetic analysis, whole antibody, sample kept at pH 7.2, 4C (unstressed).
The target is the same in experiment [7]. Put plainly: BLI steady state analysis, whole antibody, sample kept at pH 7.2, 4C (unstressed). As for the experimental part:
To assess affinity of whole antibodies, steady state analysis was used as the bivalent nature of both whole antibody and CD8α complicates kinetic analysis. 50 nM CD8α-His (that is, CD8α with a C-terminal oligohistidine tag; Acro) was immobilized on Ni-NTA sensor probes. Binding was analyzed with a three-fold antibody dilutions series: 60 nM, 20 nM, 6.67 nM, 2.22 nM, 0.74 nM, and 0.25 nM. The antigen-loaded sensors were incubated in the diluted solutions to capture the whole IgG antibody for 300 s to record the association phase. Sensors were incubated in the kinetic buffer for 900 s to record the dissociation phase. The spin speed was 1000 rpm for all steps except the antigen loading step which was 400 rpm to control density of the antigen. The temperature of the performed assays was at 30° C. during the association and dissociation phases. The sensor data were baseline subtracted and further analyzed in GatorOne software (version 2.10) to determine the equilibrium dissociation constants (KD) of the antibodies by fitting the signals of the steady states to the 1:1 binding model.

In experiment [8] the target is T3, human CD8 on cells (CD8-overexpressing …). Kind of experiment: flow cytometry, Human Expanded T cells Donor 5, gated on live CD8 T cells (via CD3+CD4-). How it is done: as §1
The source holds these as a separate data set.

Experiment [9] has as its target T1, rhesus macaque CD8 on expanded primary …. Kind of experiment: flow cytometry, Rhesus Expanded T cells Donor 9, gated on live CD8 T cells (via CD3+CD4-). As for the experimental part: as §1
The source holds these as a separate data set.

Experiment [10] shares this target. Put plainly: flow cytometry, Rhesus Expanded T cells Donor 8, gated on CD4- T cells, anti-human Fc BV421. As for the experimental part: as §2
as §1, with “Cells were stained with each diluted antibody solution for 30 minutes on ice.” left out

Experiment [11] has as its target T3, human CD8 on cells (CD8-overexpressing …). Kind of experiment: flow cytometry, Human Expanded T cells Donor 6, gated on live CD8 T cells (via CD3+CD4-). As for the experimental part: as §1
For experiment [12], the target named is T4, cynomolgus macaque CD8 on expanded primary T cells (cynomolgus macaque).
T4 construct: also called CD4- CD8+ cynomolgus macaque T cells
Put plainly: flow cytometry, Cyno Expanded T cells Donor 10, gated on live CD8 T cells (via CD3+CD4-). As for the experimental part:
as §1

The target in experiment [13] is T4, cynomolgus macaque CD8 on expanded …. The description is as above. How it is done: as §1
This is another data set of the same source.

Like-named read-outs stand apart in the source and are kept apart here.

T2 sequence (P01732 22-182 limits assumed): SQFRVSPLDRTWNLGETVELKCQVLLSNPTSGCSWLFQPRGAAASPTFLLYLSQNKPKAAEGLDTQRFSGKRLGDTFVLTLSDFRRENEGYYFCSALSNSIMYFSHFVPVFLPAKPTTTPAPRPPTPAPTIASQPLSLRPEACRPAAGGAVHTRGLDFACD
T3 sequence (P01732 22-235): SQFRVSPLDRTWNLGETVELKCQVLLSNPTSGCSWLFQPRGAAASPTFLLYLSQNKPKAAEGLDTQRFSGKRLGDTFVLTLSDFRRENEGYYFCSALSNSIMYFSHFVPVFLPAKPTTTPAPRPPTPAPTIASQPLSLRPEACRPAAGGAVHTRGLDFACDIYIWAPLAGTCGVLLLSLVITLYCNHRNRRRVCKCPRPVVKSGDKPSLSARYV

B1: CBD1033 whole antibody, human IgG1 with Fc-silencing mutations L234A, L235A and P329A (CBD1033-hIgG1-LALAPA) (antibody, V domains shown)
VH: QVQLVQSGAEVKKPGASVKVSCKASRYTFTDYNLHWVRQAPGQGLEWMGFIYPYNGGTGYAQKFQGRVTMTVDTSTSTAYMELSSLRSEDTAVYYCARDHRYNEGVSFDYWGQGTTVTVSS
VL: DIQLTQSPSSLSASVGDRATITCRASESVDGFGNSFMNWYQQKPGKAPKLLIYLASNLESGVPSRFSGSGSGTDFTLTISSVQPEDFATYYCQQNNEDPYTFGQGTKLEIKR
notes: On tLNPs the antibody was SATA-modified or AJICAP-thiolated (CBD1033.29) and conjugated to the LNP; also called CBD1033.3; CBD1033 IgG1
One may read the EC50 as the concentration that produces a half-maximal response. High values mean lower potency in that assay, low ones higher potency in that assay. What is called Kd is a measure of binding affinity in units of concentration. A word on the EC50 (read off the curve): it is the concentration that produces a half-maximal response. A low value points to greater potency. One may read the koff as the first-order rate constant of dissociation. What is called kon is the second-order rate constant of association. Regarding B1, the EC50 in experiment [1] was found to be 0.993 nM; in experiment [3], 0.094 µg/mL; in experiment [8], 0.644 nM; in experiment [9], 0.145 µg/mL; in experiment [11], 0.767 nM; in experiment [12] it was 0.169 µg/mL. The EC50 in experiment [13] came out at 1.16 nM. The Kd in experiment [2] came out at 2.27 nM; in experiment [5], 2.19 nM; in [6] it was 1.66 nM; in experiment [7], 1.45 nM. In addition, the concentration giving a half-maximal response (EC50 (read off the curve)) in experiment [4] and in experiment [10] was about 0.1 µg/mL in each case. For the same molecule, the koff stood at 0.00309 s⁻¹ in experiment [5] and 0.00308 s⁻¹ in experiment [6]. Besides, the kon in [5] was 1.41e+06 M⁻¹ s⁻¹; in experiment [6] it was 1.85e+06 M⁻¹ s⁻¹.

B2: CBD1017ch whole antibody (chimeric CT8 antibody) (antibody, V domains shown)
VH: EVQLQQSGPELVKPGASVKISCKASRYTFTDYNLHWVKLSHEKSLEWIGFIYPYNGGTGYNQKFKNKAKLTVDYSSSTAYMELRSLTSVDAAVYYCARDHRYNEGVSFDYWGQGTTLTVSS
VL: NIVLTQSPASLAVSLGQRATISCRASESVDGFGNSFMNWYQQKPGQSPKLLIYLASNLESGVPARFSGSGSRTDFTLTIDPVEADDAATYYCQQNNEDPYTFGGGTKLEIK
notes: Chimeric antibody comprising the variable regions of the donor antibody CT8; detected with anti-human Fc
Turning to B2, the EC50 in experiment [1] was 0.308 nM; in experiment [3], 0.051 µg/mL; in experiment [8], 0.349 nM; in experiment [9], 0.045 µg/mL; in [11], 0.356 nM; in experiment [12], 0.057 µg/mL. This molecule returned an EC50 in experiment [13] of 0.39 nM. The Kd in experiment [2] turned out to be 0.58 nM; in experiment [5], 0.55 nM; in experiment [6] it was 0.43 nM; in experiment [7], 0.36 nM. The “EC50 (read off the curve)” value in experiment [4] and in experiment [10] was about 0.05 µg/mL each time. In addition, the koff in [5] came to 0.000795 s⁻¹; in experiment [6], 0.000655 s⁻¹. Further, the kon in experiment [5] was 1.45e+06 M⁻¹ s⁻¹; in [6] it was 1.53e+06 M⁻¹ s⁻¹.

For the origin of these results see patent US20250195685A1 (CAPSTAN THERAPEUTICS, published 2025).
